Laboratory results reported in article PMC8861512, “Characterization and Secretory Expression of a Thermostable Tannase from Aureobasidium melanogenum T9: Potential Candidate for Food and Agricultural Industries” (Frontiers in Bioengineering and Biotechnology, 2022).

Legend:
Test in all cases: purified protein
Format in all cases: biochemical, Aureobasidium melanogenum
Settings in all cases: standard assay: 100 mM Na2HPO4-citric acid buffer, pH 5.0, 40 °C
purified protein [1] = substrate: CCCOC(=O)c1cc(O)c(O)c(O)c1
purified protein [2] = substrate: O=C(O[C@@H]1Cc2c(O)cc(O)cc2O[C@@H]1c1cc(O)c(O)c(O)c1)c1cc(O)c(O)c(O)c1
purified protein [3] = substrate: COC(=O)c1cc(O)c(O)c(O)c1
purified protein [4] = substrate: O=C(O[C@@H]1Cc2c(O)cc(O)cc2O[C@@H]1c1ccc(O)c(O)c1)c1cc(O)c(O)c(O)c1
purified protein [5] = substrate: O=C(O[C@@H]1Cc2c(O)cc(O)cc2O[C@H]1c1cc(O)c(O)c(O)c1)c1cc(O)c(O)c(O)c1

B1: TanA (Aureobasidium melanogenum) (protein)
chain: SKDCSKATFQKVIPSNSTFNYVTKVAEGGTFTDAEANANATGLPEGCAVSVKVPTPGNSSYNMAIYMPNKWNSRIITTGNGGYGGFTNWQDLGQYSHYGFSAITTDTGHFNPNVLDSTFALNKGSLENWGWRAMHGSVLVGKALSAAYYGQTHKFSYYSGCSTGGRQGLKEMQVSPDAFDGVFVGAPAWWIPHLSIWTSQATLANLPQNSDHHISAALANVINDEILKQCDPQDGVTDNVIMNPAGCVFNPLTLLCEGAANASACITRPQLDTLYKALHDWTYFDGTLIFPVPSLGTPLVAYIGDSPIPNPMGTGAIEHMLLNTTEPYDWSTFNESVVRLSEAIDPGHGTPDNYDLSTFQKRGGKVIHWHGEADPIIPFRSSSYFYSQVASSVAPHDIEMDSFYKFFPIAGMSHCSGSQYSPWYIAGATQPLTNVSHGVPGFDDAQHNGLLALMRWVENGTAPEQLVATKYNNDDPTKGVYRQRPLCPFPKQPIYTHGNVDSASSWKCS
notes: codon-optimised, signal peptide (first 19 of 528 residues) removed; 6xHis tag kept; secreted by Yarrowia lipolytica, Ni-IDA purified
Km (purified protein [1]): 1710 µM | Km (purified protein [2]): 2520 µM | Km (purified protein [3]): 2810 µM | Km (purified protein [4]): 2130 µM | Km (purified protein [5]): 1860 µM
